# Numbered stars: 1 amine (or outer) side, 2 acyl side, 3 side chain; on linkers, the order of the positions; unused ones are H or OH. Bridge positions count the residues as written; N and C are the ends. Side chains are listed from the residue outwards. Ends that are not written are not given here. * marks the point of attachment. C20 diacid = O=C(O)CCCCCCCCCCCCCCCCCCC(=O)*; γGlu = O=C(O)[C@H](CCC(=O)[*:2])N[*:1]; AEEA = NCCOCCOCC(=O)O
# T1: human calcitonin receptor (human, UniProt P30988 25-474)
# T1 construct: whole, on cells; Assayed as cell membranes of BHK tk'ts 13 cells stably transfected with the human calcitonin receptor (Assay VII); also called hCTR; hCT
# T1 sequence (looked up): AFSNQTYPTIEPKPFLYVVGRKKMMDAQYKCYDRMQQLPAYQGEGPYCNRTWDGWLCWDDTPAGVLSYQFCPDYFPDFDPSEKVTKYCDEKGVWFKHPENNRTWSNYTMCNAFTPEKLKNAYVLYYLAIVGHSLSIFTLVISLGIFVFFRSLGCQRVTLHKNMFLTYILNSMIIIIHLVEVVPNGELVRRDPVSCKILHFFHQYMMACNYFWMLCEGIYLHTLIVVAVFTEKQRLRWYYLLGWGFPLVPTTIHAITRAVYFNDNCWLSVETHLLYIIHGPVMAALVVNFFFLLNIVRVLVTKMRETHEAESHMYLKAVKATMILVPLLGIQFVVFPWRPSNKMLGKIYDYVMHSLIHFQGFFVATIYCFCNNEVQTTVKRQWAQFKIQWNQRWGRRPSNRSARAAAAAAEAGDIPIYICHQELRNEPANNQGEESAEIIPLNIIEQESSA
# B1: N^ε1-[2-[2-[2-[[(4S)-4-carboxy-4-(19-carboxynonadecanoylamino)butanoyl]amino]ethoxy]ethoxy]acetyl]-[His14,Arg17,Pro21,Pro27]-h-amylin (peptide)
# peptide: K([AEEA-γGlu-C20 diacid])CNTATCATQRLAHFLRHSSPNFGAIPSSTNVGSNTY-NH2
# modifications: disulfide 2-7; N-terminus assumed
# SMILES: CC[C@H](C)[C@H](NC(=O)[C@H](C)NC(=O)CNC(=O)[C@H](Cc1ccccc1)NC(=O)[C@H](CC(N)=O)NC(=O)[C@@H]1CCCN1C(=O)[C@H](CO)NC(=O)[C@H](CO)NC(=O)[C@H](Cc1c[nH]cn1)NC(=O)[C@H](CCCNC(=N)N)NC(=O)[C@H](CC(C)C)NC(=O)[C@H](Cc1ccccc1)NC(=O)[C@H](Cc1c[nH]cn1)NC(=O)[C@H](C)NC(=O)[C@H](CC(C)C)NC(=O)[C@H](CCCNC(=N)N)NC(=O)[C@H](CCC(N)=O)NC(=O)[C@@H](NC(=O)[C@H](C)NC(=O)[C@@H]1CSSC[C@H](NC(=O)[C@@H](N)CCCCNC(=O)COCCOCCNC(=O)CC[C@H](NC(=O)CCCCCCCCCCCCCCCCCCC(=O)O)C(=O)O)C(=O)N[C@@H](CC(N)=O)C(=O)N[C@@H]([C@@H](C)O)C(=O)N[C@@H](C)C(=O)N[C@@H]([C@@H](C)O)C(=O)N1)[C@@H](C)O)C(=O)N1CCC[C@H]1C(=O)N[C@@H](CO)C(=O)N[C@@H](CO)C(=O)N[C@H](C(=O)N[C@@H](CC(N)=O)C(=O)N[C@H](C(=O)NCC(=O)N[C@@H](CO)C(=O)N[C@@H](CC(N)=O)C(=O)N[C@H](C(=O)N[C@@H](Cc1ccc(O)cc1)C(N)=O)[C@@H](C)O)C(C)C)[C@@H](C)O
# notes: also called compound 69
# B2: N^ε1-[2-[2-[2-(19-carboxynonadecanoylamino)ethoxy]ethoxy]acetyl]-[Arg17,Pro21,Pro27,His34]-h-amylin (peptide)
# peptide: K([AEEA-C20 diacid])CNTATCATQRLANFLRHSSPNFGAIPSSTNVGHNTY-NH2
# modifications: disulfide 2-7; N-terminus assumed
# SMILES: CC[C@H](C)[C@H](NC(=O)[C@H](C)NC(=O)CNC(=O)[C@H](Cc1ccccc1)NC(=O)[C@H](CC(N)=O)NC(=O)[C@@H]1CCCN1C(=O)[C@H](CO)NC(=O)[C@H](CO)NC(=O)[C@H](Cc1c[nH]cn1)NC(=O)[C@H](CCCNC(=N)N)NC(=O)[C@H](CC(C)C)NC(=O)[C@H](Cc1ccccc1)NC(=O)[C@H](CC(N)=O)NC(=O)[C@H](C)NC(=O)[C@H](CC(C)C)NC(=O)[C@H](CCCNC(=N)N)NC(=O)[C@H](CCC(N)=O)NC(=O)[C@@H](NC(=O)[C@H](C)NC(=O)[C@@H]1CSSC[C@H](NC(=O)[C@@H](N)CCCCNC(=O)COCCOCCNC(=O)CCCCCCCCCCCCCCCCCCC(=O)O)C(=O)N[C@@H](CC(N)=O)C(=O)N[C@@H]([C@@H](C)O)C(=O)N[C@@H](C)C(=O)N[C@@H]([C@@H](C)O)C(=O)N1)[C@@H](C)O)C(=O)N1CCC[C@H]1C(=O)N[C@@H](CO)C(=O)N[C@@H](CO)C(=O)N[C@H](C(=O)N[C@@H](CC(N)=O)C(=O)N[C@H](C(=O)NCC(=O)N[C@@H](Cc1c[nH]cn1)C(=O)N[C@@H](CC(N)=O)C(=O)N[C@H](C(=O)N[C@@H](Cc1ccc(O)cc1)C(N)=O)[C@@H](C)O)C(C)C)[C@@H](C)O
# notes: also called compound 91
# B3: N^ε1-[2-[2-[2-[[2-[2-[2-[[(4S)-4-carboxy-4-(19-carboxynonadecanoylamino)butanoyl]amino]ethoxy]ethoxy]acetyl]amino]ethoxy]ethoxy]acetyl]-[Arg17,Pro21,Pro27,Arg34 … (peptide)
# peptide: K([AEEA-AEEA-γGlu-C20 diacid])CNTATCATQRLANFLRHSSPNFGAIPSSTNVGRNTY-NH2
# modifications: disulfide 2-7; N-terminus assumed
# SMILES: CC[C@H](C)[C@H](NC(=O)[C@H](C)NC(=O)CNC(=O)[C@H](Cc1ccccc1)NC(=O)[C@H](CC(N)=O)NC(=O)[C@@H]1CCCN1C(=O)[C@H](CO)NC(=O)[C@H](CO)NC(=O)[C@H](Cc1c[nH]cn1)NC(=O)[C@H](CCCNC(=N)N)NC(=O)[C@H](CC(C)C)NC(=O)[C@H](Cc1ccccc1)NC(=O)[C@H](CC(N)=O)NC(=O)[C@H](C)NC(=O)[C@H](CC(C)C)NC(=O)[C@H](CCCNC(=N)N)NC(=O)[C@H](CCC(N)=O)NC(=O)[C@@H](NC(=O)[C@H](C)NC(=O)[C@@H]1CSSC[C@H](NC(=O)[C@@H](N)CCCCNC(=O)COCCOCCNC(=O)COCCOCCNC(=O)CC[C@H](NC(=O)CCCCCCCCCCCCCCCCCCC(=O)O)C(=O)O)C(=O)N[C@@H](CC(N)=O)C(=O)N[C@@H]([C@@H](C)O)C(=O)N[C@@H](C)C(=O)N[C@@H]([C@@H](C)O)C(=O)N1)[C@@H](C)O)C(=O)N1CCC[C@H]1C(=O)N[C@@H](CO)C(=O)N[C@@H](CO)C(=O)N[C@H](C(=O)N[C@@H](CC(N)=O)C(=O)N[C@H](C(=O)NCC(=O)N[C@@H](CCCNC(=N)N)C(=O)N[C@@H](CC(N)=O)C(=O)N[C@H](C(=O)N[C@@H](Cc1ccc(O)cc1)C(N)=O)[C@@H](C)O)C(C)C)[C@@H](C)O
# notes: also called compound 95
# B4: N^ε1-[(4S)-4-carboxy-4-[[(4S)-4-carboxy-4-(19-carboxynonadecanoylamino)butanoyl]amino]butanoyl]-[Asp14,Arg17,Pro21,Pro27,Arg35]-h-amylin (peptide)
# peptide: K([γGlu-γGlu-C20 diacid])CNTATCATQRLADFLRHSSPNFGAIPSSTNVGSRTY-NH2
# modifications: disulfide 2-7; N-terminus assumed
# SMILES: CC[C@H](C)[C@H](NC(=O)[C@H](C)NC(=O)CNC(=O)[C@H](Cc1ccccc1)NC(=O)[C@H](CC(N)=O)NC(=O)[C@@H]1CCCN1C(=O)[C@H](CO)NC(=O)[C@H](CO)NC(=O)[C@H](Cc1c[nH]cn1)NC(=O)[C@H](CCCNC(=N)N)NC(=O)[C@H](CC(C)C)NC(=O)[C@H](Cc1ccccc1)NC(=O)[C@H](CC(=O)O)NC(=O)[C@H](C)NC(=O)[C@H](CC(C)C)NC(=O)[C@H](CCCNC(=N)N)NC(=O)[C@H](CCC(N)=O)NC(=O)[C@@H](NC(=O)[C@H](C)NC(=O)[C@@H]1CSSC[C@H](NC(=O)[C@@H](N)CCCCNC(=O)CC[C@H](NC(=O)CC[C@H](NC(=O)CCCCCCCCCCCCCCCCCCC(=O)O)C(=O)O)C(=O)O)C(=O)N[C@@H](CC(N)=O)C(=O)N[C@@H]([C@@H](C)O)C(=O)N[C@@H](C)C(=O)N[C@@H]([C@@H](C)O)C(=O)N1)[C@@H](C)O)C(=O)N1CCC[C@H]1C(=O)N[C@@H](CO)C(=O)N[C@@H](CO)C(=O)N[C@H](C(=O)N[C@@H](CC(N)=O)C(=O)N[C@H](C(=O)NCC(=O)N[C@@H](CO)C(=O)N[C@@H](CCCNC(=N)N)C(=O)N[C@H](C(=O)N[C@@H](Cc1ccc(O)cc1)C(N)=O)[C@@H](C)O)C(C)C)[C@@H](C)O
# notes: also called compound 52
# Molecular target: T1, human calcitonin receptor
# Assay: IC50 at hCTR divided by IC50 at hAmylin-R (SPA competition assays V and VII)
# Description: The resulting pellet was resuspended, homogenized and centrifuged (20.000 rpm, 15 min) in a buffer containing 20 mM Na-HEPES and 0.1 mM EDTA (pH 7.4, buffer 2). The resulting pellet was resuspended in buffer 2 and protein concentration was measured (BCA protein Assay, Pierce). The homogenate was kept cold during the whole procedure. The membranes were kept at −80° C. until use. The assay was performed in a 384 well Optiplate (PerkinElmer) in a total volume of 40 ul. Membranes were mixed with SPA beads. Final concentration of membranes 35 ng/μL final and SPA beads was 0.05 mg/well. Test-compounds were dissolved in DMSO and further diluted in assay buffer (50 mM Hepes, pH 7.4, 1 mM CaCl2, 5 mM MgCl₂, 0.1% OA and 0.02% Tween20). […] The final mixture was incubated with shaking at 400 rpm for 120 min at 25° C. prior to centrifugation (1500 rpm, 10 min). Samples were analyzed on TopCounter™ (Packard). The IC₅₀ was calculated using (one site binding competition analysis) GraphPad Prism5 as a measure of receptor affinity.
# Membranes were prepared in the following way; the cells were rinsed with PBS and incubated with Versene for approximately 5 min before harvesting. The cells were flushed with PBS and the cell-suspension was centrifuged for 5 min at 1000 rpm. Cells were homogenized (Ultrathurrax) in a buffer containing 20 mM Na-HEPES and 10 mM EDTA (pH 7.4) and centrifuged at 20.000 rpm for 15 min. The resulting pellet was resuspended, homogenized and centrifuged (20.000 rpm, 15 min) in a buffer containing 20 mM Na-HEPES and 0.1 mM EDTA (pH 7.4, buffer 2). The resulting pellet was resuspended in buffer 2 and protein concentration was measured (BCA protein Assay, Pierce). The homogenate was kept cold during the whole procedure. The membranes were kept at −80° C. until use. Assay was performed in a 384 well Optiplate (PerkinElmer) in a total volume of 40 ul. Membranes were mixed with SPA beads.
row,Ratio hCT/hAmylin binding,Binder
1,65.3,B1
2,101,B2
3,63.4,B3

# Molecular target: T1, human calcitonin receptor
# Assay: SPA competition vs 125I-calcitonin, membranes of BHK cells with human calcitonin receptor (Assay VII)
# Description: Membranes were prepared in the following way; the cells were rinsed with PBS and incubated with Versene for approximately 5 min before harvesting. The cells were flushed with PBS and the cell-suspension was centrifuged for 5 min at 1000 rpm. Cells were homogenized (Ultrathurrax) in a buffer containing 20 mM Na-HEPES and 10 mM EDTA (pH 7.4) and centrifuged at 20.000 rpm for 15 min. The resulting pellet was resuspended, homogenized and centrifuged (20.000 rpm, 15 min) in a buffer containing 20 mM Na-HEPES and 0.1 mM EDTA (pH 7.4, buffer 2). The resulting pellet was resuspended in buffer 2 and protein concentration was measured (BCA protein Assay, Pierce). The homogenate was kept cold during the whole procedure. The membranes were kept at −80° C. until use. Assay was performed in a 384 well Optiplate (PerkinElmer) in a total volume of 40 ul. Membranes were mixed with SPA beads. Final concentration of membranes 35 ng/μL final and Final concentration of SPA beads was 0.05 mg/well. Test-compounds were dissolved in DMSO and further diluted in assay buffer (50 mM Hepes, pH 7.4, 1 mM CaCl2, 5 mM MgCl₂, 0.1% OA and 0.02% Tween20). […] The final mixture was incubated for 120 min with shaking at 400 rpm at 25° C. prior to centrifugation (1500 rpm, 10 min). Samples were analyzed on TopCounter™ (Packard). The […] was calculated using (one site binding competition analysis) GraphPad Prism5 as a measure of receptor affinity.
row,IC50,Binder
1,8.68 nM,B1
2,56.9 nM,B4
3,12 nM,B2
4,61.3 nM,B3

# Reference: patent US20140087995A1 (published 2014)
